1 substance from patent publication US20250236657A1 (TOSOH, published 2025) can be followed below.

Assay in all cases: affinity HPLC, POROS AAVX resin, linear pH gradient 6.0 to 2.0, AAV2 peak top
In assay [1] the target is AAV2 (wild type), serotype 2 AAV with capsid region VP1 of SEQ ID NO: 99 (adeno-associated virus serotype 2 (AAV2)) (UniProt P03135).
The target in assay [2] is AAV2 D529A (adeno-associated virus serotype 2 (AAV2)) (UniProt P03135).
The target of assay [3] is AAV2 G383A (adeno-associated virus serotype 2 (AAV2)) (UniProt P03135).
Assay [4] concerns the target AAV2 H271A (adeno-associated virus serotype 2 (AAV2)) (UniProt P03135).
In assay [5] the target is AAV2 H271T (adeno-associated virus serotype 2 (AAV2)) (UniProt P03135).
Assay [6] deals with AAV2 Q263A (adeno-associated virus serotype 2 (AAV2)) (UniProt P03135).
Assay [7] has as its target AAV2 R471A (adeno-associated virus serotype 2 (AAV2)) (UniProt P03135).
In assay [8] the target is AAV2 S264A (adeno-associated virus serotype 2 (AAV2)) (UniProt P03135).
The target in assay [9] is AAV2 S267T (adeno-associated virus serotype 2 (AAV2)) (UniProt P03135).
Assay [10] concerns the target AAV2 S384A (adeno-associated virus serotype 2 (AAV2)) (UniProt P03135).

For “POROS Capture Select AAVX Affinity Resin (manufactured by Thermo Fisher Scientific)”, the AAVX column elution time turned out to be 59.3 min in [1]; 59.3 min in [2]; 59.3 min in assay [3]; 59.4 min in assay [4]; 59.3 min in [5]; 59.3 min in assay [6]. Further, the AAVX column elution time in assay [7] amounted to 59.4 min; in assay [8] it was 59.2 min; in [9], 59.2 min; in [10], 59.3 min.
